Assay results: a protein production outcome set (Wang et al. 2014)

Experiment: label from the status in PepcDB records

Sequence | protein production
MNVLSLGSSSGVVWGRVPITAPAGAATGVTSRADAHSQMRRYAQTGPTAKLSSAPMTTMWGAPLHRRWRGSRLRDPRQAKFLTLASLKWVLANRAYTPWYLVRYWRLLRFKLANPHIITRGMVFLGKGVEIHATPELAQLEIGRWVHIGDKNTIRAHEGSLRFGDKVVLGRDNVINTYLDIEIGDSVLMADWCYICDFDHRMDDITLPIKDQGIIKSPVRIGPDTWIGVKVSVLRGTTIGRGCVLGSHAVVRGAIPDYSIAVGAPAKVVKNRQLSWEASAAQRAELAAALADIERKKAAR | failed
MTSHTPKFHRLAIAELRRETQDAVSMSFTIPDEIAADYTFAPGQYLTLRTTLDGEELRRSYSICSGPDDRELRIAVKKVNGGAFSGWALEQLKSGDQIEVMTPSGRFGVAHAPGESRVHVGFAAGSGITPLISIIRGILAREPNSRFFLFYGNRTTSNILFRQALQDLKDRFMARLAVFHVLSQEEQDLPILHGRLDRDRVTLLLRAMLPAQAIDHVFICGPTAMSEEIAATCAELGVPADRVHVERFVAGSGGKPRPTPVIAPQAPPAAIAALIIDGKRKEVPVAAGEAILDAALRAGIDLPYACKGGMCSTCRAKVVEGETRMDVNYSLEPWELDAGFVLTCQAHPVSDRVVIDYDAV | failed
MNASTSPLPASDQTLRGILLICAAVFLFASHDGLSKFLSGFYPIVMVVWARYLVHTLLMVAVFVPRNGLAVIRSRRPLMQLARALCLIGTSLFFTTGLRYLPLAEATAVNFLAPLLVTALSVPLLKEKVSLGQWLAVLTGFIGVLFIVRPGGALFTPAALFPLGSALCFGLYQLLTRMLANSDSPTTSNFLAGIFNTLIMSLLVPFFWQTPSLLHGLMMIALGGCGMGGHLLLTQAFRHAPPATLAPFSYGQIIFAGLLGLLVFGHVPDAWALLGILVICASGLVVAWRRGR | failed
MSTSQGSPNWPRAERVARLEVLETQILARPAEVYAEVLALWPGLSAAVPSPASPAPDSCPGPSELAAQATALQLLSRCAVLLGEDGAAANHAETGRRLAHDLGLRSLEARCLEVLGVVRGRQGDVKQAAWLLRRSLYLLHALGDTPGQGRLLGRVGDLLERLEEYPQALLFYRAGLAQLPAARPVTAAVQVGLARTLHQLGEYAESQELAAQALAVCQEVGLPQLEAQVQLQQALTQLALGELDASRRHAEQAQALAAPRHAEQAQALAAPLEHTVPGAAAWVLGEAALVRGDLAQAREGLGRAEELANTPPLLARVRGSQSRLYEQLGDPAQALRCLREQRELEQQHRARLAEQRAGLLAEQIRYEVLRREAELQRKRRNERAQAASALRETRVELSRQASHDQLTGLANRSFFYTRARQALDLLAPGRSLGLIVADIDHLKAINDRFGYAVGDLLITELARRLCEAVRPGDLVGRLSGDEFVMLLSDLASPGDLRLVAERLLQQLREPCVCGTELVVPTVSLGYVVAPQDGGDVELLQKRADLALFQAKAQGRNMAVAFAGDMSAEEEERRMLSQDLRHAVRHGQLQLHYQGIFLLPGQRLSGFEALVRWPHPKRGMIPPDRFIALAEESRLILELGRWVLDEACRQARAWQLPERGLTMAVNVSALQFEQSDFVAGVRACLEQHGLPGHSLVLELTESMVHRDPRLAKQTLRELQALGVKVAMDDFGTGYSSLSMLKSLPFGLLKIDREFLQDLSAASEQFAASQQFIEVMVRLAHNLQMRVVAEGVETAEQYDLLCGMGCDEAQGYWLARPLPPAEAAALLPAGAPDSPWPTQSPSSQQARQESPRQSLSED | failed
QSGATAKVSVLYIGPMEAPADAAQRLGLPAGTQVLARRRLYFRNGTPVETASSYLPWDVVKDIPELFAENPGGGGIYARLEDHGHEFAEFVETLQARPASKAEASELALSPGAPVVHLIREARTTAGVVVEVCDTLMAADQFVFEYRIPAAD | failed
MSLFKRSVVSEITSHAGVVFSTLVVVWLSVLLVRLLGEAAGGSIGADVVLGLAAFSTITALPTILAVSLFIAVLTTVTRNYRESEMVVWFASGLSLADWLRPVARVAVPIAMLVAALTLVASPWAYRQIGEYRERFEQRSDLSKVTAGQFAESGRGDRVFFAEDPVRPGDELGAVFARSIDPEWLSVLTASNARSETLPNGDRFLVLGEGHRYDLKPGTPEIRLVNFDQYGVRLESKAGEDPMAEARAAAERFSKARSTMQLVQDNTDSSWSQIMWRVAMPLAALNLALLAIPLGAVNPRLGRSGDLLIAGLVGLLYMNMINLSRAWISSGKISFSIGVWAVHAVVALLAAYLLMRRLRVKAPRNAGRGA | failed
